Source: the MegaScale stability set (Tsuboyama et al. 2023)

B1: EEHEE_rd4_0647 (parent)
chain: MQVTWGNVTVTFSNPEEAKKYAEKVARKLGGQVELHNGQFRIK

Variants of: B1
Assay: folding stability dG (cDNA display proteolysis); higher = more stable
Conditions: PBS, room temperature

Folding stability dG [kcal/mol], by site and new letter:
N14: G 2.12, W 1.76, H 2.38, L 2.23, S 2.86, Q 2.2, E 2.2, A 2.21, D 2.79, I 2.08, K 2.42, T 2.89, R 2.47, Y 1.91, F 1.98, V 2.05, M 1.99, P 0.65
A22: I 1.43, C 1.62, L 1.62, E -0.084, Q 0.207, N 0.101, M 1.48, T 0.682, D -0.372, F 1.07, R 0.493, K 0.426, H 0.174, W 1.04, S 1.24, P -0.509, G 0.944, Y 0.931, V 1.43
T11: K 2.49, G 2.05, Q 2.53, N 2.58, P 1.65, H 2.72, A 2.38, I 2.71, S 2.73, Y 3.02, V 2.59, R 2.62, M 2.64, F 3, W 3.23, E 2.34, D 1.99, L 2.62, C 3.51
V10: Y 2.7, T 1.74, W 2.84, S 1.23
P15: H 2.88, T 2.83, C 3.26, K 2.83, L 2.77, N 2.29, Y 3.5, R 2.78, S 2.79, G 2.46, M 3.03, W 3.08, D 1.92, Q 2.7, E 2.54, V 2.93, A 2.89, F 3.41, I 2.99
F12: I 1.43, V 0.887, E -0.423, K 0.98, M 1.38, P -0.871, S -0.107, Q 0.017, Y 1.28, G -0.079, L 1.96, T 0.01, H 0.464, N -0.258, A 0.449, C 2.49, R 0.663, W 1.18
E23: Q 2.62, F 2.98, P 0.119, L 2.7, K 2.29, T 2.37, R 2.23, S 2.15, D 2.62, V 2.42, W 2.73, C 3.37, Y 3.15, H 2.69, A 2.43, G 1.86, N 2.44, M 2.68, I 2.71
A26: E 0.315, H 0.769, S 1.71, Q 1.06, M 1.2, K 0.937, I 1.35, V 1.66, D 0.03, W 1.17, N 0.851, F 1, T 0.93, P -0.236, L 1.34, G 1.38, Y 0.807, C 2.08, R 1.38
Y21: H 1.36, D -0.099, M 1.71, T 0.931, C 2.87, R 0.486, N 0.633, P -0.824, A 1.3, W 2.52, E 0.876, F 3.05, K 0.616, Q 0.996, V 1.47, I 1.34, S 0.62, L 1.74, G 0.194
R27: P 0.58, L 2.75, W 2.3, Q 2.64, G 2.13, V 2.36, C 3.21, I 2.52, F 2.45, K 2.88, T 2.31, D 2.18, Y 2.41, E 2.61, N 2.37, H 2.51, S 2.4, A 2.78, M 2.59
V25: I 3.11, W 2.69, Y 1.48, N 0.417, R 1.33, H 1.01, L 2.95, T 1.93, P -0.34, G 0.217, A 1.61, S 0.981, Q 1.87, E 0.927, F 1.79, M 2.95, D 0.13, K 1.68
E16: K 2.52, H 2.7, G 2.54, R 2.55, Q 2.7, F 2.71, M 2.76, Y 2.77, I 2.81, L 2.78, P 1.4, W 2.75, A 2.78, D 2.79, C 3.18, V 2.81, T 2.75, S 2.68, N 2.56
K24: E 2.83, G 2.37, L 2.93, V 2.59, H 2.89, R 2.88, N 2.5, S 2.73, F 3.2, W 3.27, D 2.73, C 3.81, Y 3.25, A 3.01, I 2.75, P -0.146, M 3.16, T 2.61, Q 2.8
S13: L 2.57, I 2.52, A 2.8, V 2.51, Y 2.38, H 2.62, Q 2.71, C 3.28, N 2.79, P 2.58, R 2.81, T 2.83, G 2.5, D 2.75, E 2.65, W 2.34, K 2.86, M 2.6, F 2.49
K19: E 2.21, L 3.02, S 2.12, P 0.106, M 2.66, Q 2.61, D 0.816, H 2.34, A 2.53, W 2.88, F 2.94, N 1.71, V 2.08, G 1.83, Y 2.94, T 1.62, I 2.42
E17: F 2.47, Q 2.76, T 2.74, K 2.69, M 2.83, G 1.97, A 2.93, S 2.73, P 1.01, I 2.66, L 2.84, N 2.47, R 2.62, C 3.18, D 2.92, W 2.53, V 2.64, H 2.7, Y 2.58
K28: Q 2.79, M 3.09, G 2.01, H 2.9, P 0.676, D 2.47, N 2.29, A 3.04, F 2.97, L 3.15, C 3.7, I 3.18, E 2.72
A18: C 1.92, N 0.024, V 0.732, H 0.323, L 1, T 0.656, M 0.885, F 1.05, E 0.034, G 1.05, P -0.247, Q 0.42, D -0.206, K 0.212, Y 0.88, R 0.219, S 0.985, I 0.86, W 1.08
K20: Y 2.43, N 2.58, F 2.41, D 2.54, L 2.86, V 2.71, R 2.96, S 2.64, I 2.77, H 2.57, G 2.13, M 2.75, T 2.62, E 2.73, P 0.849, A 2.98, Q 2.72, W 2.67
